Measured values as given in publication PMC6237438.

What was measured:
[1] = molecular target: VRC01GL IgG (inferred germline precursor of the VRC01 antibody) (human); experiment: BLI; IgG immobilised on anti-AHC biosensors (20 µg/ml in PBS); DS-SOSIP trimer or 426c core in solution, dilution series; Octet Red 96, 29°C, 500 r.p.m.; kinetic buffer (1X PBS, 0.01% BSA, 0.02% Tween 20, 0.005% NaN3); 1:1 binding model; relative apparent affinities
12A21GL IgG (human) = experiment: as above
VRC01GL Fab (human) = experiment: BLI; Fab immobilised on anti-human Fab-CH1 (FAB2G) biosensors; 426c core in solution; Octet Red 96, 29°C, 500 r.p.m.; kinetic buffer (1X PBS, 0.01% BSA, 0.02% Tween 20, 0.005% NaN3); 1:1 binding model; relative apparent affinities
[2] = molecular target: VRC01GL IgG (inferred germline precursor of the VRC01 antibody); experiment: BLI; conditions: 426c core (293F-expressed) injected at 0.5, 1, 2.5, 4, 5, 10, 20, 40, 80, 160 µM

Question: How did the Kd [1] turn out when “426c DS-SOSIP D3 trimer (from UniProt Q2N0S6 1-860) (complex)” was run?
Answer: Its Kd is 43 nM.

Question: With “426c S278A core, HEK293 GnTI-/--expressed (domain or fragment)” as the substance, how does the Kd [1] read?
Answer: The Kd was 204 nM.

Question: With “426c S278T core, HEK293 GnTI-/--expressed (domain or fragment)” as the substance, how does the fold change of KD against the 426c core [1] read?
Answer: The fold change of KD against the 426c core was 10 fold.

Question: What about the fold change of KD against the 426c core (12A21GL IgG (human)) of the same substance?
Answer: The fold change of KD against the 426c core was 10 fold.

Question: For “426c core (wild-type NLGSs), HEK293 GnTI-/--expressed (domain or fragment)”, which Kd (VRC01GL Fab (human)) is on record?
Answer: Its Kd is 15000 nM.

Question: What about the Kd [1] of the same substance?
Answer: The Kd was 2000 nM.

Question: How did the Kd (VRC01GL Fab (human)) turn out when “426c core (wild-type NLGSs), HEK293F-expressed (domain or fragment)” was run?
Answer: Its Kd is 11000 nM.

Question: With “426c core (wild-type NLGSs), HEK293F-expressed S278A” as the substance, how does the Kd [2] read?
Answer: The Kd was 1900 nM.

Question: Which Kd [2] does the source give for “426c core (wild-type NLGSs), HEK293F-expressed S278A; T462A” here?
Answer: Its Kd is 2500 nM.

Question: “426c core (wild-type NLGSs), HEK293F-expressed S278A; T465A” was tested. Which Kd [2] did it give?
Answer: Its Kd is 8900 nM.

Question: “EndoH-treated 426c core (HEK293 GnTI-/--expressed) (domain or fragment)” was tested. Which Kd [1] did it give?
Answer: The Kd was 245 nM.
